Among the data in PMC11488661 (Science immunology, 2024) are Kd values, retold here.

Sequences and labels used below:
B1: g5-D78-13_CLK19 (antibody, V domains shown)
VH: QVQLVQSGAEVKKPGASVKVSCKASGYIFTDYNMHWVRQAPGQGLEWMGWINPSFGGRNIVQKFQGRVTMTRDTSISTAYMELSGLRSDDTAVYFCTPVLAPFRWRFAYWGQGTLVTVSS
VL: DIQMTQSPSSLSASVGDRVTITCQASQDINYLNWYQQKPGKAPKLLIYDASNLETGVPSRFSGSGSGTDFTFTISSLQPEDIATYYCQQYAAFGPGTKVNIK
B2: g5-D78-15_CLK19 (antibody, V domains shown)
VH: B1 VH with R106P, A108V
VL: B1 VL with T71S, N100D
B3: g5-D78-20_CLK19 (antibody, V domains shown)
VH: B1 VH with G49A, S54R, F55S, Y80F
VL: B1 VL with D81N, N100D
B4: g5-D78-10_CLK19 (antibody, V domains shown)
VH: QVQLVQSGAEVKKPGASVKVSCKASGYTFTGYFIHWVRQAPGQGLEWMGWINPSYGAVNYARKFQGRVTMTRDTSISTAYMELQRLRSDDTAIYHCTIALAGYRWGFDYWGQGALVTVSS
VL: DIQMTQSPSSLSAFVGDRVTITCQARLDIRYSLNWYQQKPGKAPNLLIYDASNLETGVPSRFSGSGSGTNFTFTISTLQPEDIATYYCQQYETFGPGTKVHIK
B5: g5-D78-12_CLK19 (antibody, V domains shown)
VH: B4 VH with F33Y
VL: B4 VL with S76N, H101D
B6: g5-D78-14_CLK19 (antibody, V domains shown)
VH: B4 VH with F33Y, S77T, H95Y
VL: B4 VL with S76N, H101D
B7: g5-D78-16_CLK19 (antibody, V domains shown)
VH: B4 VH with F33Y
VL: B4 VL with I102F
B8: g5-D78-18_CLK19 (antibody, V domains shown)
VH: B4 VH with F33Y, S54T, R85S
VL: B4 VL with H101D
B9: g28v2-D58-5_CLK19 (antibody, V domains shown)
VH: QVQLVQSGAEVKKPGASVKVSCKASGYTFTGYFIHWVRQAPGQGLEWMGWINPNRGGTNYAQKFQGRVTMTRDTSTSTAYMDLSRLRSDDTAMYYCTVVLAAYRWPFAYWGQGTLVTVSS
VL: DIRVTQSPSSLSASVGDRVTITCQANQDIRNYLNWYQQKPGKAPKLLIYDVSKLETGVPSRFSGSGSGTDFTFTISSLQSEDIATYYCQQYETFGPGTKVDIK
B10: g28v2-D58-6_CLK19 (antibody, V domains shown)
VH: QVQLVQSGAEVKKPGASVKVSCKASGYTFTGYYIHWFRQAPGQGLEWMGWMNPSYGGTNYAQKFQGRVTMTRDTSINTAYMELSRLRSDDTAVYYCTPVLAAYRWRFDYWGQGTLVTVSS
VL: B9 VL with R3Q, V4M, D28A, K53N
B11: g28v2-D58-2_CLK09 (antibody, V domains shown)
VH: QIQLVQSGAEVKKPGASVKVSCKASGYTFTDYFLHWVRQAPGQDLEWMGWINPTFGGTNYARNFQGRVTMTRDTSISTAYLELNRLRSDDTAVYYCATDLASNRWRFDYWGQGTLVTVSS
VL: DLQMTQSPSSLSASVGDRVTITCQASQDISNYLNWYQQKPGKAPKLLIYGASNLETGVPSRFSGSGSGTDFTFTISSLQPEDIAIYYCQQYEFFGGGTKVEIK
B12: g5-D78-1_CLK19 (antibody, V domains shown)
VH: QVQLVQSGAEVKKPGASVKVSCKASGYTFTGYFLHWVRQAPGQGLEWMGWINPNRGGVNYAQKFQGRVTMTRDTSINTAYMELSRLRSDDSAVYYCTPVLTNFRWRFDFWGQGTLVTVSS
VL: B9 VL with R3Q, V4M, N26S, R30K, K42T, V51T, K53N, S80P
B13: g28v2-D58-7_CLK09 (antibody, V domains shown)
VH: B10 VH with F37V, S54T, Y55G, A102D
VL: B11 VL with L2I, S14F, D28G, I29V, N31K, G50D, I85T
B14: g5-D78-19_CLK09 (antibody, V domains shown)
VH: QVQLVQSGAEVKKPGVSVKVSCKASGYTFNGYYMHWVRQAPGQGLEWMGWINPNNGGMNVARRFQDRVTLTRDTSFTTAYMELSRLRSDDSAVYYCARVGGLWFGEKWTFDIWGQGTMVTVSS
VL: B11 VL with L2I, A25T, N31T, Y32F, K39R, E55A, I85T
B15: g28v2-D58-4_CLK09 (antibody, V domains shown)
VH: QVQLVQSGAEVKKPGASVKVSCKASGYTFIGYYIHWVRQAPGQGLEWMGWINPNRGGTNYPQKFQGRVTMTRDTSISTAYMELSRLRSDDTAVYYCALWFGEKKTFDIWGQGTMVTVSS
VL: B11 VL with L2I, D28G, I29V, Y36F, P44L, G50D, A51V, I85T
B16: g5-D78-2_CLK19 (antibody, V domains shown)
VH: B12 VH with A24T, R55S, V58I, S91T, R106P, D108A
VL: B9 VL with R3Q, V4M, N26S, R30K, K42T, V51T, K53N, S65R, S80P
B17: g28v2-D58-8_CLK09 (antibody, V domains shown)
VH: QVQLVQSGAEVKKPGASVKVSCKASGYTFTDYYLHWVRQAPGQGLEWMGWINPSTGGRNHARQFQGRVAMTRDTSISTAYMELSRLRSDDTAVYFCTPVLATFRWRFVYWGQGTLVTVSS
VL: B11 VL with L2I, D28G, I29V, G50D, A51V, I85T
B18: g28v2-D58-3_CLK09 (antibody, V domains shown)
VH: B15 VH with E10D, K12R, I30T, G31D, I34V
VL: B11 VL with L2I, D28G, I29V, G50D, A51V, I85T
B19: g28v2-D58-9_CLK09 (antibody, V domains shown)
VH: QVQLVQSGAEVKKPGASVKVSCKASGNTFTGNYIHWIRQAPGQGLEWMGWLNPNSGGTNYAQQLQGRVTMTRDTSISTAYMELRRLRSDDTAVYYCARVEGLWFGKEWAFDIWGQGTMVTVSS
VL: B11 VL with L2I, D28G, I29V, P44L, G50D, A51V, I85T

Residue numbers refer to the chain shown, from its start.

The assay has as its target eOD-GT8 (monomeric ligand) (Human immunodeficiency virus 1, …).
By Kd is commonly meant a measure of binding affinity in units of concentration. The molecule B1 registered an equilibrium dissociation constant (Kd) of 4.9 nM. B2 returned a Kd of 0.92 nM.

Take B3: the Kd was 3.4 nM. With B4 the figure was 38 nM.

As to B5, the Kd amounted to 12 nM.

As for B6, the affinity, expressed as Kd, was 11 nM. The figure for B7 is 12 nM. With B8 the figure was 12 nM.

Regarding B9, binding was characterised by a dissociation constant (Kd) of 39 nM. With B10 the figure was 1.06 nM; with B11, 1.55 nM. The figure for B12 is 8 nM. With B13 the figure was 0.512 nM; with B14, 0.2 nM; with B15, 3.48 nM. With B16, the dissociation constant Kd was determined as 0.42 nM.

B17 registered a Kd of 0.444 nM. B18: the affinity, expressed as Kd, was 1.38 nM. B19 had a dissociation constant (Kd) of 0.0455 nM.
